Assay [1] concerns the target T1, Zip2^499-704 (XPF-like region), recombinant, co-expressed with His6-Spo16 (S. cerevisiae, UniProt P53061 499-704).
T1 sequence: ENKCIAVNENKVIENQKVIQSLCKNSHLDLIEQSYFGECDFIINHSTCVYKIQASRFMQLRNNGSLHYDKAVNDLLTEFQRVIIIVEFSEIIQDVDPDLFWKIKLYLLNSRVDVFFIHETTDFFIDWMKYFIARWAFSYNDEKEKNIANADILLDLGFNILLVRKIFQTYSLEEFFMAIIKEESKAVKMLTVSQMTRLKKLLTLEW
Description: SEC-MALS. (In general: Size exclusion chromatography separates by hydrodynamic size, large species first.)

Assay [2] addresses T2, Zip2^499-704, surface-lysine methylated (Form 1 crystals) (S. cerevisiae, UniProt P53061 499-704).
T2 sequence: T1 sequence
Description: crystal structure.

B1: His6-Spo16 (full-length Spo16 with TEV-cleavable N-terminal His6-tag), recombinant (natural protein)
chain: SEFFWDVQKIQEISNVEEHSVVKCVTVNTSRLISQLNEELQDEESGVNFIVTQLQLLINNVYEKIQKSPGVPAHRSLMINLNFTRLKFSIAYWDILLERSLDLINGPSKTGARYFITEVTPVDRSRYVENNQYFLAFKANQRLTRNSVDMDEFIDFEILIKQIIFDLFKKNGIPDQDFEAILSRFHNLESLVVAFNE
In the case of B1, the stoichiometry N (as a rule, the number of molecules, sites or subunits per partner or assembly) in assay [1] was 1.

B2: His6-Spo16, surface-lysine methylated (Form 1 crystals) (natural protein)
chain: B1 chain
modifications: surface lysines dimethylated (positions not listed)
For B2, in assay [2], the binding result is listed as “binds”.

These data come from publication doi:10.1101/258194 (bioRxiv, 2018).
